Values of other authors in PMC2589311.
Read-outs that look alike come from different tables or passages of the source.

How the values were obtained:
[1] = target: IL-1 receptor (synovial cells) (Homo sapiens) (UniProt P14778)
[2] = target: second IL-1 receptor, 68 kDa (RAJI cells) (Homo sapiens) (UniProt P27930)
[3] = target: IL-1 receptor (synovial cells) (Homo sapiens) (UniProt P14778); remark: listed apart in the source

Sequence of UniProt P14778 (P14778 18-569): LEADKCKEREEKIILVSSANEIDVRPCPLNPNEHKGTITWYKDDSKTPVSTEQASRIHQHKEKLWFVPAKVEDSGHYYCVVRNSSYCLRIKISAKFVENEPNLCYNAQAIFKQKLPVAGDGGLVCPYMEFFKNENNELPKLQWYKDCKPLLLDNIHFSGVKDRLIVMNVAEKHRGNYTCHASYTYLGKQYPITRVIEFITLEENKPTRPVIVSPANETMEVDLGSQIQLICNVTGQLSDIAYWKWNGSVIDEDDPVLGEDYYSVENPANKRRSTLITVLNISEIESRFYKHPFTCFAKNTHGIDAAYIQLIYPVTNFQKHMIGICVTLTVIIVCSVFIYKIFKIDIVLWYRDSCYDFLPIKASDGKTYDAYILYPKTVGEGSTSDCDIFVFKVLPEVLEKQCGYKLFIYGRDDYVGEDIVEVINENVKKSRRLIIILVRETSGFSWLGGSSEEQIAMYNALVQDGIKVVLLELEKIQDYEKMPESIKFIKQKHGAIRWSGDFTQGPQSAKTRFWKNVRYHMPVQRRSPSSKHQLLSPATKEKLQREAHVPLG
Sequence of UniProt P27930 (P27930 14-398): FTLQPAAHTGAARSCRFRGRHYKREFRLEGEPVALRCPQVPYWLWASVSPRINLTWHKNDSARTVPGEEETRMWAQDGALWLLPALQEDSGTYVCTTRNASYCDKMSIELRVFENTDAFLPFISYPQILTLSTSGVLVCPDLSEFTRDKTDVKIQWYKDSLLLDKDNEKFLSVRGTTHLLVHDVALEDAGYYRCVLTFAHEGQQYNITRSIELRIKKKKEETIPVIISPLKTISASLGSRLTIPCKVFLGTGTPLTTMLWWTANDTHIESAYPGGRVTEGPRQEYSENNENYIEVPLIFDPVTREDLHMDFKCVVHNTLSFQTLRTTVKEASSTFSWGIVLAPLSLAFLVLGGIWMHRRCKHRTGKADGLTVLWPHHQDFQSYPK

IL-1alpha (from UniProt P01583)
Kd [1]: 0.066 nM

IL-1beta (from UniProt P01584)
Kd [2]: 2.2 nM
Kd [3]: 0.004 nM
